One block for each molecule: values may come before it.
B2: MBP-fused full-length ER cytoplasmic domain (MBP-ER_CD) (domain or fragment, Arabidopsis, UniProt Q42371 602-976, looked up)
chain: CRPHNPPPFLDGSLDKPVTYSTPKLVILHMNMALHVYEDIMRMTENLSEKYIIGHGASSTVYKCVLKNCKPVAIKRLYSHNPQSMKQFETELEMLSSIKHRNLVSLQAYSLSHLGSLLFYDYLENGSLWDLLHGPTKKKTLDWDTRLKIAYGAAQGLAYLHHDCSPRIIHRDVKSSNILLDKDLEARLTDFGIAKSLCVSKSHTSTYVMGTIGYIDPEYARTSRLTEKSDVYSYGIVLLELLTRRKAVDDESNLHHLIMSKTGNNEVMEMADPDITSTCKDLGVVKKVFQLALLCTKRQPNDRPTMHQVTRVLGSFMLSEQPPAATDTSATLAGSCYVDEYANLKTPHSVNCSSMSASDAQLFLRFGQVISQNSE
notes: ERECTA (ER) receptor kinase, Arabidopsis, cytoplasmic domain (juxtamembrane domain, kinase domain and C-terminal tail); source: recombinant, expressed and purified; not shown: MBP, N-terminal, kept

Columns and labels:
[1] = molecular target: GST-BKI1 (BRI1 KINASE INHIBITOR 1) (UniProt Q9FMZ0); test: BLI; recombinantly purified GST-BKI1 or GST-PUB30 and MBP-ER_CD variants at seven concentrations (156.25, 312.5, 625, 1,250, 2,500, 5,000 and 10,000 nM); three independent experiments; who was immobilised is in SI Appendix
[2] = molecular target: GST-PUB30 (U-box E3 ligase PUB30) (UniProt Q058P4); test: as above
[3] = molecular target: T1, MBP-ER_CD_(T/S8E), phosphomimetic version (Arabidopsis, UniProt Q42371 602-976, Thr947 (T/S8E) | Ser950 (T/S8E) | Ser954 (T/S8E) | Ser955 (T/S8E) | Ser957 …); test: BLI
T1 sequence: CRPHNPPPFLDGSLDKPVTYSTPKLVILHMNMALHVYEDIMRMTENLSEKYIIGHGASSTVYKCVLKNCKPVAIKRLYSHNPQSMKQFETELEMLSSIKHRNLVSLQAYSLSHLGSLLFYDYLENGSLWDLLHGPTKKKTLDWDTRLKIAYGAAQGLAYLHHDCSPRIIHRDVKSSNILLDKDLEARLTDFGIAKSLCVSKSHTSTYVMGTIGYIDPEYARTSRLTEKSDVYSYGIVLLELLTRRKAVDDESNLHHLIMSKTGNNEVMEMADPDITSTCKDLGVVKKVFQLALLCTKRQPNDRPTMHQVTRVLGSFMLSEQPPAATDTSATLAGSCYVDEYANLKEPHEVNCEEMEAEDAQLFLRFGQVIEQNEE

[4] = molecular target: T2, MBP-ER_CD_(T/S8A), phosphonull version (Arabidopsis, UniProt Q42371 602-976, Thr947 (T/S8A) | Ser950 (T/S8A) | Ser954 (T/S8A) | Ser955 (T/S8A) | Ser957 …); test: BLI
T2 sequence: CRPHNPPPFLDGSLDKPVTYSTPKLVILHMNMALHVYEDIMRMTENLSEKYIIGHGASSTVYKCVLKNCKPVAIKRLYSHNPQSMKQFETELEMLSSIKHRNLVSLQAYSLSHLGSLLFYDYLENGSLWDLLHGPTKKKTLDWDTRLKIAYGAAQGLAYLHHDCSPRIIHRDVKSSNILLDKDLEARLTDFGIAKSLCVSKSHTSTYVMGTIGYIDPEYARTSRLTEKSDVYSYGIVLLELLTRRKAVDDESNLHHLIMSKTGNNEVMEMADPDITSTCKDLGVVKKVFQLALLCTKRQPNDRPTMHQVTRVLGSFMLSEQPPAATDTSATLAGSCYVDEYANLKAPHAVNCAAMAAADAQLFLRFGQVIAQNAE

[5] = molecular target: T3, GST-PUB30 (U-box E3 ligase PUB30) (UniProt Q058P4 1-448); test: BLI; recombinantly purified GST-BKI1 or GST-PUB30 and MBP-ER_CD variants at seven concentrations (156.25, 312.5, 625, 1,250, 2,500, 5,000 and 10,000 nM); three independent experiments; who was immobilised is in SI Appendix; details: both partners purified
T3 construct: plant U-box (PUB) E3 ubiquitin ligase PUB30; Tag end from the order of the printed name; source: recombinantly purified; not shown: GST, N-terminal, kept
T3 sequence (looked up): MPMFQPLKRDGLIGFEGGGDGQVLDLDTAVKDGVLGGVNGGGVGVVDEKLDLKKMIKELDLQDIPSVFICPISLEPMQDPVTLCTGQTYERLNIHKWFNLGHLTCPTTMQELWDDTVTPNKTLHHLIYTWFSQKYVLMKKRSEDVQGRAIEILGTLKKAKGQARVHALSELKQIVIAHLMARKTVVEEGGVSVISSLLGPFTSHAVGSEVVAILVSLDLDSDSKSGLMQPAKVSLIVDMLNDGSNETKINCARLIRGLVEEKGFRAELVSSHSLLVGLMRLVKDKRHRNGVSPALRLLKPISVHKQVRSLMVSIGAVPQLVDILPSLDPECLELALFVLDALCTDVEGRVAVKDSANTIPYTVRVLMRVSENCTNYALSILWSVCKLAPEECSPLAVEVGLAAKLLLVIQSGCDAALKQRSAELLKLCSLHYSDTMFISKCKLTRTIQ

[6] = molecular target: T4, MBP-ER_CD_(T/S8A), phosphonull version (Arabidopsis, UniProt Q42371 602-976, Thr947 (T/S8A) | Ser950 (T/S8A) | Ser954 (T/S8A) | Ser955 (T/S8A) | Ser957 …); test: as above; details: both partners purified
T4 construct: ERECTA (ER), Arabidopsis, cytoplasmic domain with the eight phosphosites of the C-terminal tail changed to alanine; Tag end from the order of the printed name; source: recombinant, purified; not shown: MBP, N-terminal, kept
T4 sequence (looked up): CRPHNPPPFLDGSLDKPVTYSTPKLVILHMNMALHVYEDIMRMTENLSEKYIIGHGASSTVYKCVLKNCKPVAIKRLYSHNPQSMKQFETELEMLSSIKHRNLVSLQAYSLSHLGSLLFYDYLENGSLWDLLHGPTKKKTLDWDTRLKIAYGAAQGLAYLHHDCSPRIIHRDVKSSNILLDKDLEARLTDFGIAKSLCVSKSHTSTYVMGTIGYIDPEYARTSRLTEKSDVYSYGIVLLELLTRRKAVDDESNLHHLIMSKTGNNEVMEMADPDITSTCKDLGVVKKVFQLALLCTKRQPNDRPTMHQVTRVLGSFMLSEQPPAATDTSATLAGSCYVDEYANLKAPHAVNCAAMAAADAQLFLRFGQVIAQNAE

[7] = molecular target: B2; test: as above; details: both partners purified

Molecule: B2
Kd [5]: 0.393 ± 0.048 µM

B4: MBP-ER_CD_(T/S8E), phosphomimetic version (domain or fragment, Arabidopsis, UniProt Q42371 602-976, looked up)
chain: CRPHNPPPFLDGSLDKPVTYSTPKLVILHMNMALHVYEDIMRMTENLSEKYIIGHGASSTVYKCVLKNCKPVAIKRLYSHNPQSMKQFETELEMLSSIKHRNLVSLQAYSLSHLGSLLFYDYLENGSLWDLLHGPTKKKTLDWDTRLKIAYGAAQGLAYLHHDCSPRIIHRDVKSSNILLDKDLEARLTDFGIAKSLCVSKSHTSTYVMGTIGYIDPEYARTSRLTEKSDVYSYGIVLLELLTRRKAVDDESNLHHLIMSKTGNNEVMEMADPDITSTCKDLGVVKKVFQLALLCTKRQPNDRPTMHQVTRVLGSFMLSEQPPAATDTSATLAGSCYVDEYANLKEPHEVNCEEMEAEDAQLFLRFGQVIEQNEE
notes: ERECTA (ER), Arabidopsis, cytoplasmic domain with the eight phosphosites of the C-terminal tail changed to glutamate; Tag end from the order of the printed name; source: recombinant, purified; not shown: MBP, N-terminal, kept
binding result [5]: binds

Other lines, results leading:

Kd [1]: 47.7 µM | Kd [2]: 0.805 µM
Molecule: MBP-ER_CD_(ΔCTα-Helix) (domain or fragment)

Kd [3]: 0.194 µM | Kd [4]: 9.5 µM
B1: GST-PUB30 (U-box E3 ligase PUB30) (enzyme)
chain: MPMFQPLKRDGLIGFEGGGDGQVLDLDTAVKDGVLGGVNGGGVGVVDEKLDLKKMIKELDLQDIPSVFICPISLEPMQDPVTLCTGQTYERLNIHKWFNLGHLTCPTTMQELWDDTVTPNKTLHHLIYTWFSQKYVLMKKRSEDVQGRAIEILGTLKKAKGQARVHALSELKQIVIAHLMARKTVVEEGGVSVISSLLGPFTSHAVGSEVVAILVSLDLDSDSKSGLMQPAKVSLIVDMLNDGSNETKINCARLIRGLVEEKGFRAELVSSHSLLVGLMRLVKDKRHRNGVSPALRLLKPISVHKQVRSLMVSIGAVPQLVDILPSLDPECLELALFVLDALCTDVEGRVAVKDSANTIPYTVRVLMRVSENCTNYALSILWSVCKLAPEECSPLAVEVGLAAKLLLVIQSGCDAALKQRSAELLKLCSLHYSDTMFISKCKLTRTIQ

binding result [6]: binds | Kd [7]: 3.7 ± 0.7 µM | Kd [3]: 18 µM | Kd [4]: 3.8 µM
B3: GST-BKI1 (BRI1 KINASE INHIBITOR 1) (natural protein, UniProt Q9FMZ0 1-337, looked up)
chain: METNLQQVKNSSQTFSEKQNPKQEASPSPISSTCSSPSHDFSFTISLQPLSSSSKHISPTLRSPSKTTSSYQQTDPFAVDLSPADEIFFHGHLLPLHLLSHLPVSPRTSTGSYNDGFTLPVKDILPDQPTNNNNNTENAITNISTEAKDDNTEDKAEGEIRVKTKPIKSFSLFGLSKWRKGFESNEREQEQQQQKIKKPMSLDLSHAVKKYIRMLFQKRGNGTQFWNRRQTSSYSFSSSLMGPNGNSKTMINGSYNKRDLIRGRRGELFSAPASMRTSPTNSGHLRVSTAGLSSSSGSTSSSSSDSTMEELQAAIQAAIAHCKNSSAVDRDDKVKDS
notes: Tag end from the order of the printed name; source: recombinantly purified; not shown: GST, N-terminal, kept

Reference: article PMC11789017, “Preventing inappropriate signals pre- and post-ligand perception by a toggle switch mechanism of ERECTA” (Proceedings of the National Academy of Sciences of the …, 2025)
